Columns and labels:
Assay in all cases: EMSA
Settings in all cases: tags: MBP fusion
[1] = target: T1, ZFP SBS#278 (synthetic)
T1 chain: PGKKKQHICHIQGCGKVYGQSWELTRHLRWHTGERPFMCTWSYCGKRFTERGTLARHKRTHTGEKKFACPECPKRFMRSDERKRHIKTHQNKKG
How it was run: (§1)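 Purified ZFP was titrated against labeled double-stranded target (1 nM or lower, at least 10-fold below expected Kd) carrying the natural binding site with flanks. Binding buffer was 10 mM Tris pH 7.5, 100 mM KCl, 1 mM MgCl2, 0.1 mM ZnCl2, 5 mM DTT, 10% glycerol, 0.02% BSA, with equilibration for at least 45 min. Bound and free target were separated on a 10% polyacrylamide gel.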

[2] = target: T2, ZFP SBS#252 (synthetic)
T2 chain: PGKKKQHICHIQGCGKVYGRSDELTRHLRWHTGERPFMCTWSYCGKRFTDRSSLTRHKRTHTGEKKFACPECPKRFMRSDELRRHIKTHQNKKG
How it was run: as §1

[3] = target: T3, ZFP SBS#279 (synthetic)
T3 chain: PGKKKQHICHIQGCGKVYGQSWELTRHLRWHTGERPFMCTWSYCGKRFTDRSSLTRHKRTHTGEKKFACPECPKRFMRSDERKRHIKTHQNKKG
How it was run: as §1

[4] = target: T4, ZFP SBS#280 (synthetic)
T4 chain: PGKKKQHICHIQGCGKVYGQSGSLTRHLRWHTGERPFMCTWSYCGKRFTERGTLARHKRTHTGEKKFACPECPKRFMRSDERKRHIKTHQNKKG
How it was run: as §1

[5] = target: T5, ZFP SBS#277 (synthetic)
T5 chain: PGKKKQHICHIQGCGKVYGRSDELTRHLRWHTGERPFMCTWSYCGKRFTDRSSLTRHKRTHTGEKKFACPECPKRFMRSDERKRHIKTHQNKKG
How it was run: as §1

[6] = target: T6, ZFP SBS#281 (synthetic)
T6 chain: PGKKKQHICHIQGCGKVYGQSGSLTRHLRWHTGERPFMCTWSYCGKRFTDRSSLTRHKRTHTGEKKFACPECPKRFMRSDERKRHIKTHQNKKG
How it was run: as §1

[7] = target: T7, ZFP SBS#276 (synthetic)
T7 chain: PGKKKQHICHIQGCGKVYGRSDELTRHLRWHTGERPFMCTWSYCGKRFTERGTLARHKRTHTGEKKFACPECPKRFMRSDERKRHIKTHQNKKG
How it was run: as §1

[8] = target: ZFP SBS#515 (synthetic)
How it was run: as §1

[9] = target: ZFP SBS#516 (synthetic, UniProt P08047)
How it was run: as §1

[10] = target: ZFP SBS#517 (synthetic, UniProt P08047)
Sequence of ZFP SBS#517 (P08047 other isoform, or with tags, fused parts or gaps): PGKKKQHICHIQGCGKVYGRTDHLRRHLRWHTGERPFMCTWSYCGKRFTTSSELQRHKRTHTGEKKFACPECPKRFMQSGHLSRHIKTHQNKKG
How it was run: as §1

[11] = target: ZFP SBS#518 (synthetic, UniProt P08047)
Sequence of ZFP SBS#518 (P08047 other isoform, or with tags, fused parts or gaps): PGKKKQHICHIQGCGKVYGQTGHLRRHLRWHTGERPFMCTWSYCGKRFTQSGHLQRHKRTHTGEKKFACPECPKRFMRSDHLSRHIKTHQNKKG
How it was run: as §1

[12] = target: ZFP SBS#519 (synthetic, UniProt P08047)
Sequence of ZFP SBS#519 (P08047 other isoform, or with tags, fused parts or gaps): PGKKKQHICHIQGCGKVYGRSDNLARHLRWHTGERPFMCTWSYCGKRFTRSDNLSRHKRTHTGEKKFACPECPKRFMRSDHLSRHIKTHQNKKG
How it was run: as §1

[13] = target: ZFP SBS#520 (synthetic)
How it was run: as §1

[14] = target: ZFP SBS#522 (synthetic, UniProt P08047)
How it was run: as §1

[15] = target: T8, ZFP SBS#527 (synthetic, UniProt P08047)
T8 chain: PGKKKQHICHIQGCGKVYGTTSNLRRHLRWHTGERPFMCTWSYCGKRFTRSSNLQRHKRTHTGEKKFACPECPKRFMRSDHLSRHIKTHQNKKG
How it was run: as §1

[16] = target: T9, ZFP SBS#528 (synthetic, UniProt P08047)
T9 chain: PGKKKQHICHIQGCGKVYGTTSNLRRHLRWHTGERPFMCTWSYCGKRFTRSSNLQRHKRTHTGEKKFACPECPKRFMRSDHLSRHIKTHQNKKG
How it was run: as §1

[17] = target: T10, ZFP SBS#606 (synthetic, UniProt P08047)
T10 chain: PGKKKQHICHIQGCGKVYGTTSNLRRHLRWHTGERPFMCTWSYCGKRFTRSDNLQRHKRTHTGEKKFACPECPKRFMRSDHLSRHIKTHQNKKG
How it was run: as §1

[18] = target: ZFP SBS#534 (synthetic)
How it was run: as §1

[19] = target: ZFP SBS#533 (synthetic)
Sequence of ZFP SBS#533 (synthetic) (chain, as listed by the source): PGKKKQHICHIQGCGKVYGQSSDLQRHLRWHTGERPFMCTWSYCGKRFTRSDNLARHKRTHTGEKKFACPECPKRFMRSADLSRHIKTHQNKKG
How it was run: as §1

[20] = target: T11, ZFP SBS#531 (synthetic, UniProt P08047)
T11 chain: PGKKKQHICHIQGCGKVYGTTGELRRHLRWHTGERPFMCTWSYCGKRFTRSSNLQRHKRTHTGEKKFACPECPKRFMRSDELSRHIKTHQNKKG
How it was run: as §1

[21] = target: ZFP SBS#532 (synthetic, UniProt P08047)
Sequence of ZFP SBS#532 (P08047 other isoform, or with tags, fused parts or gaps): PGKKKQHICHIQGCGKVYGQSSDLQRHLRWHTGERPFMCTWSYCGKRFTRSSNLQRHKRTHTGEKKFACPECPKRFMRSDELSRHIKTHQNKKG
How it was run: as §1

[22] = target: ZFP SBS#538 (synthetic)
How it was run: as §1

[23] = target: T12, ZFP SBS#540 (synthetic)
T12 chain: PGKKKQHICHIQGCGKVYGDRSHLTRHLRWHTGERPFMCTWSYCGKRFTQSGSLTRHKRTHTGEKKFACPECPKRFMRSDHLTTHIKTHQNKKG
How it was run: as §1

[24] = target: T13, ZFP SBS#570 (synthetic)
T13 chain: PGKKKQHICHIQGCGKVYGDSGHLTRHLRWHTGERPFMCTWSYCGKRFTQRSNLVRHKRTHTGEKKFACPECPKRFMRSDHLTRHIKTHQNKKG
How it was run: as §1

[25] = target: T14, ZFP SBS#574 (synthetic)
T14 chain: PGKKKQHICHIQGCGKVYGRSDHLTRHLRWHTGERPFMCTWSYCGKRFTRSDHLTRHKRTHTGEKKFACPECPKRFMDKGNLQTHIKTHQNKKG
How it was run: as §1

[26] = target: T15, ZFP SBS#575 (synthetic)
T15 chain: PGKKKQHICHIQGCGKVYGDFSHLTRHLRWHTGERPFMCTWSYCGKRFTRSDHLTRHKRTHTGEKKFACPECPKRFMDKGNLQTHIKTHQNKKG
How it was run: as §1

[27] = target: ZFP SBS#576 (synthetic)
Sequence of ZFP SBS#576 (synthetic) (chain, as listed by the source): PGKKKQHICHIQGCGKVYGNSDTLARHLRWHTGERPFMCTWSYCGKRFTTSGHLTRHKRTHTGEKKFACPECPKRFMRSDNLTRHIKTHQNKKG
How it was run: as §1

[28] = target: ZFP SBS#577 (synthetic, UniProt P08047)
How it was run: as §1

[29] = target: T16, ZFP SBS#579 (synthetic)
T16 chain: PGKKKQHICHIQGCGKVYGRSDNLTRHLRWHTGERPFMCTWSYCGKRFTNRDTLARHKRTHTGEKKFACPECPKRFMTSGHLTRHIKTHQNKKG
How it was run: as §1

[30] = target: T17, ZFP SBS#581 (synthetic)
T17 chain: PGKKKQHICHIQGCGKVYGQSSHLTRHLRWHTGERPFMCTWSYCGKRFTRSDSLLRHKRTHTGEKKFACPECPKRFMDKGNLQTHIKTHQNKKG
How it was run: as §1

[31] = target: ZFP SBS#583 (synthetic)
Sequence of ZFP SBS#583 (synthetic) (chain, as listed by the source): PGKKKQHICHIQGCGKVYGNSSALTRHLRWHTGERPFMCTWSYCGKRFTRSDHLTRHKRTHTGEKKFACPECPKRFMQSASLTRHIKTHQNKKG
How it was run: as §1

[32] = target: ZFP SBS#587 (synthetic)
Sequence of ZFP SBS#587 (synthetic) (chain, as listed by the source): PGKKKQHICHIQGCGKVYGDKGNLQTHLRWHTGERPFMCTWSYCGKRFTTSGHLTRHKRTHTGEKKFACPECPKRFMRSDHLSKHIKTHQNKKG
How it was run: as §1

[33] = target: ZFP SBS#588 (synthetic, UniProt P08047)
How it was run: as §1

[34] = target: T18, ZFP SBS#595 (synthetic)
T18 chain: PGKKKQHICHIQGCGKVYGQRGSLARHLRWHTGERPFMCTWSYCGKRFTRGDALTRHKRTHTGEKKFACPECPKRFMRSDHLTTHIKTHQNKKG
How it was run: as §1

B1: GCGGCCGCG (dsDNA)
DNA 1: GCGGCCGCG
DNA 2: CGCGGCCGC
Kd [1]: 190 nM
Kd [2]: 100 nM
Kd [3]: 260 nM
Kd [4]: 160 nM
Kd [5]: 107 nM
Kd [6]: 225 nM
Kd [7]: 90 nM

B2: TGGGAGGAGT (dsDNA)
DNA 1: TGGGAGGAGT
DNA 2: ACTCCTCCCA
Kd [8]: 0.5 nM

B3: GGAGGAGCT (dsDNA)
DNA 1: GGAGGAGCT
DNA 2: AGCTCCTCC
Kd [9]: 700 nM

B4: GGAGCTGGGG (dsDNA)
DNA 1: GGAGCTGGGG
DNA 2: CCCCAGCTCC
Kd [10]: 50 nM

B5: GGGGGAGGAG (dsDNA)
DNA 1: GGGGGAGGAG
DNA 2: CTCCTCCCCC
Kd [11]: 30 nM

B6: GGGGAGGAGA (dsDNA)
DNA 1: GGGGAGGAGA
DNA 2: TCTCCTCCCC
Kd [12]: 0.3 nM

B7: GGAGGAGAT (dsDNA)
DNA 1: GGAGGAGAT
DNA 2: ATCTCCTCC
Kd [13]: 300 nM

B8: GATGAGGCA (dsDNA)
DNA 1: GATGAGGCA
DNA 2: TGCCTCATC
Kd [14]: 200 nM

B9: GGGGAGGATC (dsDNA)
DNA 1: GGGGAGGATC
DNA 2: GATCCTCCCC
Kd [15]: 2 nM
Kd [16]: 10 nM
Kd [17]: 0.2 nM

B10: GCGGAGGCTT (dsDNA)
DNA 1: GCGGAGGCTT
DNA 2: AAGCCTCCGC
Kd [18]: 10 nM
Kd [19]: 7 nM
Kd [20]: 160 nM
Kd [21]: 100 nM

B11: GCAGAGGCTT (dsDNA)
DNA 1: GCAGAGGCTT
DNA 2: AAGCCTCTGC
Kd [22]: 70 nM

B12: TGGGCAGGCC (dsDNA)
DNA 1: TGGGCAGGCC
DNA 2: GGCCTGCCCA
Kd [23]: 55 nM

B13: GGGGAAGGCT (dsDNA)
DNA 1: GGGGAAGGCT
DNA 2: AGCCTTCCCC
Kd [24]: 20 nM

B14: TACGTGGGGT (dsDNA)
DNA 1: TACGTGGGGT
DNA 2: ACCCCACGTA
Kd [25]: 25 nM

B15: TACGTGGGCT (dsDNA)
DNA 1: TACGTGGGCT
DNA 2: AGCCCACGTA
Kd [26]: 472 nM

B16: GAGGGTGTTG (dsDNA)
DNA 1: GAGGGTGTTG
DNA 2: CAACACCCTC
Kd [27]: 200 nM

B17: GGAGCGGGGA (dsDNA)
DNA 1: GGAGCGGGGA
DNA 2: TCCCCGCTCC
Kd [28]: 200 nM

B18: GGGGTTGAGG (dsDNA)
DNA 1: GGGGTTGAGG
DNA 2: CCTCAACCCC
Kd [29]: 200 nM

B19: TACGTGGGTT (dsDNA)
DNA 1: TACGTGGGTT
DNA 2: AACCCACGTA
Kd [30]: 382 nM

B20: GTAGGGGTTG (dsDNA)
DNA 1: GTAGGGGTTG
DNA 2: CAACCCCTAC
Kd [31]: 46 nM

B21: GGGGGTTACG (dsDNA)
DNA 1: GGGGGTTACG
DNA 2: CGTAACCCCC
Kd [32]: 500 nM

B22: GGGGGGGGGG (dsDNA)
DNA 1: GGGGGGGGGG
DNA 2: CCCCCCCCCC
Kd [33]: 30 nM

B23: TGGTTGGTAT (dsDNA)
DNA 1: TGGTTGGTAT
DNA 2: ATACCAACCA
Kd [34]: 73.3 nM

From patent US20030068675, “Position dependent recognition of GNN nucleotide triplets by zinc fingers” (published 2003)
